Target: the molecule itself
Experiment: SEC

B1: PfuAmyGT (PF0272) from Pyrococcus furiosus, wild type (enzyme, UniProt P49067 1-649, looked up)
chain: MGDKINFIFGIHNHQPLGNFGWVFEEAYEKCYWPFLETLEEYPNMKVAIHTSGPLIEWLQDNRPEYIDLLRSLVKRGQVEIVVAGFYEPVLASIPKEDRIEQIRLMKEWAKSIGFDARGVWLTERVWQPELVKTLKESGIDYVIVDDYHFMSAGLSKEELYWPYYTEDGGEVIAVFPIDEKLRYLIPFRPVDKVLEYLHSLIDGDESKVAVFHDDGEKFGIWPGTYEWVYEKGWLREFFDRISSDEKINLMLYTEYLEKYKPRGLVYLPIASYFEMSEWSLPAKQARLFVEFVNELKVKGIFEKYRVFVRGGIWKNFFYKYPESNYMHKRMLMVSKLVRNNPEARKYLLRAQCNDAYWHGLFGGVYLPHLRRAIWNNLIKANSYVSLGKVIRDIDYDGFEEVLIENDNFYAVFKPSYGGSLVEFSSKNRLVNYVDVLARRWEHYHGYVESQFDGVASIHELEKKIPDEIRKEVAYDKYRRFMLQDHVVPLGTTLEDFMFSRQQEIGEFPRVPYSYELLDGGIRLKREHLGIEVEKTVKLVNDGFEVEYIVNNKTGNPVLFAVELNVAVQSIMESPGVLRGKEIVVDDKYAVGKFALKFEDEMEVWKYPVKTLSQSESGWDLIQQGVSYIVPIRLEDKIRFKLKFEEASG
stoichiometry N: 2
